± gives the uncertainty stated by the source.
Experiment: protein stability index of a GFP-peptide fusion (yeast GPS) (PSI 1-4); higher = more stable; sorted into four equal gates, so the index is relative within each strain
Outline: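 Yeast carrying a pooled library were grown to mid-log phase in leucine-free medium. Each library plasmid expresses Cherry and has a tiled 17-residue yeast protein peptide fused downstream of GFP. Cells were sorted into four equal gates by GFP/Cherry ratio, and plasmids from each gate were PCR-amplified, Illumina-sequenced and assigned to strains by barcode. Summing, across gates, the read frequency times the gate number gave each peptide's protein stability index.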

Sequence	protein stability index (pdr5∆)	protein stability index (ubr1∆)	protein stability index (doa10∆)	protein stability index (san1∆)
ANDHDESIDVDMDAESN [SMC3]	2.37 ± 0.28	1.81 ± 0.25		
KSQEQREHSLQLFRTNK [PRP28]	2.51 ± 0.11	2.9 ± 0.076	3 ± 0.24	2.88 ± 0.12
DDDNSNVDYYNVAHRIK [SNF2]	3.15 ± 0.044	3.23 ± 0.038	3.31 ± 0.048	3.06 ± 0.031
LQKEKELHKEGTISKLE [SMC2]	3.08 ± 0.08	2.5 ± 0.05	2.89 ± 0.075	1.83 ± 0.06
TNPSSIFGGAGGVPTTS [YOR098C/NUP1]	2.36 ± 0.076	1.59 ± 0.053	1.72 ± 0.066	2.15 ± 0.086
EWQDIIHQREQELQIKR [CSE2]	3.5 ± 0.17	3.13 ± 0.23		3.29 ± 0.26
KYYLEESNVNDSDMLTK [NUT1]	3.15 ± 0.082	3.36 ± 0.086	3.13 ± 0.097	3.31 ± 0.07
YNIELPLPPRIDPSVTM [RPT1]	2.73 ± 0.088	1.95 ± 0.083	2.44 ± 0.21	2.47 ± 0.12
KHITVRLTAKRLIEHDP [SRP14]	2.52 ± 0.044	2.65 ± 0.035	2.35 ± 0.057	2.51 ± 0.064
KNLKDTASVEKAEFSKE [YIL149C/MLP2]	3.19 ± 0.091	3.24 ± 0.081	3.07 ± 0.083	3.09 ± 0.1
AKEELNGLKDQLNEERS [YIL149C/MLP2]	3.42 ± 0.17	3.41 ± 0.15	3.3 ± 0.14	3.19 ± 0.075
MVNTQQPIVTGTSVISM [PRE4]	2.69 ± 0.23	1.96 ± 0.2	2.1 ± 0.26	1.95 ± 0.14
INSGTFVKVTKATLELL [RPL7A]	2.92 ± 0.092	2.9 ± 0.12	3.01 ± 0.1	2.65 ± 0.12
RQEVTKFAKANIGYVMG [RPN4]	1.31 ± 0.11	1.14 ± 0.065	1.2 ± 0.15	1.21 ± 0.18
IKNGRIYFTVPNEFEIQ [RGR1]	2.49 ± 0.045	2.57 ± 0.043	2.62 ± 0.06	2.45 ± 0.049
KLQFETDRLSTTQRRYE [SMC1]	3.3 ± 0.058	3.12 ± 0.083	3.13 ± 0.094	3.12 ± 0.086
GTFTADYSKPNLPPHYA [SSN2]	2.28 ± 0.049	2.15 ± 0.039	2.23 ± 0.055	2.16 ± 0.068
LSYISALGMMTRISSQF [RET1]	1.34 ± 0.057	1.14 ± 0.054	1.41 ± 0.063	1.43 ± 0.16
FQTPFRRRREGKTDYYQ [RPL5]	3.31 ± 0.12	3.03 ± 0.11		2.97 ± 0.12
LTLMEKAAFEDLKSKGL [FAS1]	3.29 ± 0.088	3.26 ± 0.052	3.03 ± 0.078	3.2 ± 0.054
LGIKVAELTGDSRLSRK [BRR2]	2.18 ± 0.19			2.67 ± 0.16

Sequence	protein stability index (pdr5∆)	protein stability index (ubr1∆)	protein stability index (doa10∆)	protein stability index (san1∆)
KNKGLVVSPYDYNHKRV [DIB1]	3.19 ± 0.11	3.35 ± 0.17	3.18 ± 0.12	3.02 ± 0.14
NELLLPSELNQLKMVNE [RPC82]	2.94 ± 0.13		3.14 ± 0.12	3.25 ± 0.13
ETEFPPFREFLQVLIDQ [ECM29]	3.45 ± 0.16	3.27 ± 0.12	3.46 ± 0.19	3.2 ± 0.095
LSGNSVEDVSQNAADLQ [RPL9A]	3.55 ± 0.15	3.31 ± 0.058	3.31 ± 0.15	2.78 ± 0.13
VQLSPSNPQHIIQPFLD [RGR1]	2.85 ± 0.062	2.82 ± 0.032	2.73 ± 0.051	2.51 ± 0.063
EGEAKQKRNAHGYFLQD [ITC1]	3.4 ± 0.072	3.32 ± 0.043	3.18 ± 0.065	3.35 ± 0.035
EFIPHSTEYMMQFAKSK [RPN6]	3.28 ± 0.17	1.91 ± 0.14		2.8 ± 0.1
VVDTEETATLIMNELYR [SMC3]	3.17 ± 0.11	3.03 ± 0.096	3.02 ± 0.086	2.79 ± 0.1
LVGSWKKDRATGDADEP [RPO21]	3.55 ± 0.11	3.46 ± 0.081	3.14 ± 0.22	3.15 ± 0.11
GEKNFTSAHLKLKEMQK [SMC4]	3.35 ± 0.12	3.14 ± 0.24	3.01 ± 0.14	3.27 ± 0.078
LTNMMSPMGNAYSMGAQ [PGD1]	2.64 ± 0.077	2.68 ± 0.044	2.34 ± 0.062	2.49 ± 0.084
QRDRHTLAYDRGHRIRR [PRP8]	3.21 ± 0.074	2.87 ± 0.048	3.01 ± 0.1	2.83 ± 0.095
FPSIPLPINGPITNKER [RPC31]	2.37 ± 0.064	2.56 ± 0.11	2.23 ± 0.058	2.17 ± 0.082
QQEAKYRNNEPAGFTHK [YDL088C/ASM4]	2.98 ± 0.046	2.83 ± 0.045	2.88 ± 0.052	2.6 ± 0.059
IKAFMDSTIGNSKVDMK [IRR1]	2.45 ± 0.16	2.05 ± 0.19	2.57 ± 0.27	
TESLRVENSVLIEKVDD [YIL149C/MLP2]	2.98 ± 0.22	2.79 ± 0.074	2.48 ± 0.17	2.63 ± 0.14
LYEKLKQEIMMSDLFTF [ISW2]	2.34 ± 0.063	2.64 ± 0.06	2.69 ± 0.099	2.14 ± 0.1
VPVKLEEIKTVDPASAP [RRP6]	2.56 ± 0.16	2.79 ± 0.11	2.83 ± 0.13	2.87 ± 0.17
GKKASLNVGNVLPLGSV [RPL2A]	2.29 ± 0.057	2.56 ± 0.042	2.4 ± 0.051	2.51 ± 0.078
DLKSKGLIPADATFAGH [FAS1]	3.01 ± 0.074	2.98 ± 0.065	3.04 ± 0.092	3.07 ± 0.12
VEDDLVTVQTELNEEKK [SMC2]	2.55 ± 0.078	2.85 ± 0.087	3.23 ± 0.16	2.55 ± 0.08

— the supplement of paper PMC9732359
